Measurements taken from PMC13623127 (PLOS One, 2026).
One block for each binder: values may come before it.

Legend:
Experiment in all cases: SPR; TNFSF member immobilised on ProteOn GLH chip by amine coupling (up to 5,000-14,500 RU); S100 analyte 62.5 nM to 16 uM, 300 s at 30 uL/min; 25°C; 10 mM HEPES-NaOH, 150 mM NaCl, 0.05% TWEEN 20, 1 mM CaCl2, pH 7.4; heterogeneous ligand, one-site or two-state model; constants averaged over analyte concentrations (SD, n = 2-9)
Details in all cases: both partners purified
[1] = target: T1, vascular endothelial cell growth inhibitor (TNF ligand superfamily member 15), recombinant soluble form (human, UniProt O95150 72-251)
T1 construct: also called VEGI
T1 sequence (looked up): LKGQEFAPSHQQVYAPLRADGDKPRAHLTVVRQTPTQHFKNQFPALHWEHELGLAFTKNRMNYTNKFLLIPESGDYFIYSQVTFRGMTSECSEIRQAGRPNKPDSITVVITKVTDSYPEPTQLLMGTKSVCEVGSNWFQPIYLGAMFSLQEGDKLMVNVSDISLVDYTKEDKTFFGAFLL

[2] = target: T2, A proliferation-inducing ligand (TNF ligand superfamily member 13), recombinant soluble form (human, UniProt O75888 105-250)
T2 construct: A proliferation-inducing ligand (TNF ligand superfamily member 13), human, recombinant soluble form; also called APRIL
T2 sequence (looked up): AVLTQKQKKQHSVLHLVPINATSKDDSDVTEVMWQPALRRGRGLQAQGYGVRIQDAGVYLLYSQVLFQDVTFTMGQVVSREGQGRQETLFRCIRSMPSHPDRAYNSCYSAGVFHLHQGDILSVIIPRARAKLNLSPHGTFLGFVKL

[3] = target: T3, activation-inducible TNF-related ligand (TNF ligand superfamily member 18), recombinant soluble form (human, UniProt Q9UNG2 49-177)
T3 construct: also called AITRL
T3 sequence (looked up): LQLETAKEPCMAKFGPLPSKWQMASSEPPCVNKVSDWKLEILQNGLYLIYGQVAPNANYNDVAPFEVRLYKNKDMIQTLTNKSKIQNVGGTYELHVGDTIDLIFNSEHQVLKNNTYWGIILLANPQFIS

[4] = target: T4, TNF-related weak inducer of apoptosis (TNF ligand superfamily member 12), recombinant soluble form (human, UniProt O43508 94-249)
T4 construct: TNF-related weak inducer of apoptosis (TNF ligand superfamily member 12), human, recombinant soluble form; also called TWEAK
T4 sequence (looked up): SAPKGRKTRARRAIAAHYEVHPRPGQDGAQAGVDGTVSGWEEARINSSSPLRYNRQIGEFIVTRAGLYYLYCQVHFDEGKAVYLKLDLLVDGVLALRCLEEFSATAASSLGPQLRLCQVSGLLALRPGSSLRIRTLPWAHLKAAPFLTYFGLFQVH

- Kd [1]: 11100 nM
- koff [1]: 0.0123 s⁻¹
B1: recombinant tag-free human S100P (natural protein, UniProt P25815 1-95, looked up)
chain: MTELETAMGMIIDVFSRYSGSEGSTQTLTKGELKVLMEKELPGFLQSGKDKDAVDKLLKDLDANGDAQVDFSEFIVFVAAITSACHKYFEKAGLK
notes: S100P, human, recombinant, tag-free; Tag-free

- Kd [2]: 684 nM
- koff [2]: 0.00122 s⁻¹
B2: recombinant tag-free human S100A2 (natural protein)
chain: not shown
notes: S100A2, human, recombinant, tag-free; Tag-free

- Kd [3]: 409 nM
- koff [3]: 0.000275 s⁻¹
- Kd [2]: 11 nM
- koff [2]: 4.85e-06 s⁻¹
- Kd [4]: 75.7 nM
- koff [4]: 3.29e-05 s⁻¹
B3: recombinant tag-free human S100A5 (natural protein, UniProt P33763 1-92, looked up)
chain: METPLEKALTTMVTTFHKYSGREGSKLTLSRKELKELIKKELCLGEMKESSIDDLMKSLDKNSDQEIDFKEYSVFLTMLCMAYNDFFLEDNK
notes: S100A5, human, recombinant, tag-free; Tag-free

- Kd [3]: 12000 nM
- koff [3]: 0.00626 s⁻¹
B4: recombinant tag-free human S100B (natural protein, UniProt P04271 1-92, looked up)
chain: MSELEKAMVALIDVFHQYSGREGDKHKLKKSELKELINNELSHFLEEIKEQEVVDKVMETLDNDGDGECDFQEFMAFVAMVTTACHEFFEHE
notes: S100B, human, recombinant, tag-free; Tag-free
